Source: US20150164996A1 (Sanofi, published 2015)
Read-outs that look alike come from different tables or passages of the source. Square brackets hold non-standard residues; d marks the D form. Ends that are not written are not given here. Aib = CC(C)(N)C(=O)O

T1: human GIP receptor (human, UniProt P48546 22-466)
T1 sequence (looked up): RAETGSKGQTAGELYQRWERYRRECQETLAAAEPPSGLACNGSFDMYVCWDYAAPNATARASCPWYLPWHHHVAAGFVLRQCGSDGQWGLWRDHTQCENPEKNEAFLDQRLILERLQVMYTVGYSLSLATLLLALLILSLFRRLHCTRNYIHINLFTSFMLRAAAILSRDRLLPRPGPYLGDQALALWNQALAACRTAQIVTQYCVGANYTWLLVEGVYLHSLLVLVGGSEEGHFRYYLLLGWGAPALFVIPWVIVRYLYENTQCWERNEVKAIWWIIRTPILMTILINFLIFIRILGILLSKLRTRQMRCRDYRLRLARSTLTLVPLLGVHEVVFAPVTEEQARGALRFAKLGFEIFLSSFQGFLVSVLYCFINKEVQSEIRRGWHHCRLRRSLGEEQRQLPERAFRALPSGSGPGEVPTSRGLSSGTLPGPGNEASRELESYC


How the values were obtained:
Assay in all cases: cell-based or functional assay
[1] = target: human GLP-1 receptor (human) (UniProt P43220)
[2] = target: human glucagon receptor (human) (UniProt P47871)
[3] = target: T2, human GLP-1 receptor (human, UniProt P43220 24-463)
Target sequence in this assay (P43220 24-463): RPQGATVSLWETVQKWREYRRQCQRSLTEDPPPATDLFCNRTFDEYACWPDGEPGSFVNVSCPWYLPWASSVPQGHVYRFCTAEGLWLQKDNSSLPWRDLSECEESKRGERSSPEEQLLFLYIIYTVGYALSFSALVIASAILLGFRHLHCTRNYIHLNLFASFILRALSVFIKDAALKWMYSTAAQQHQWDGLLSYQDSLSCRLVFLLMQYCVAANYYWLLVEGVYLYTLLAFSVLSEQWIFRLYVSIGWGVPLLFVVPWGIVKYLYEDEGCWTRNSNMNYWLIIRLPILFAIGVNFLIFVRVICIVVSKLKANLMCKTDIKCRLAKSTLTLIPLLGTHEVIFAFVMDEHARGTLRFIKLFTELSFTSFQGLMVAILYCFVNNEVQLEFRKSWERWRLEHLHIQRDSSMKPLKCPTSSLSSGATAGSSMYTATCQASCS

[4] = target: T1, human GIP receptor
[5] = target: T2, human GLP-1 receptor; remark: listed apart in the source
[6] = target: T1, human GIP receptor; remark: listed apart in the source
[7] = target: human glucagon receptor (human, UniProt P47871 26-477)
Sequence of human glucagon receptor (P47871 26-477): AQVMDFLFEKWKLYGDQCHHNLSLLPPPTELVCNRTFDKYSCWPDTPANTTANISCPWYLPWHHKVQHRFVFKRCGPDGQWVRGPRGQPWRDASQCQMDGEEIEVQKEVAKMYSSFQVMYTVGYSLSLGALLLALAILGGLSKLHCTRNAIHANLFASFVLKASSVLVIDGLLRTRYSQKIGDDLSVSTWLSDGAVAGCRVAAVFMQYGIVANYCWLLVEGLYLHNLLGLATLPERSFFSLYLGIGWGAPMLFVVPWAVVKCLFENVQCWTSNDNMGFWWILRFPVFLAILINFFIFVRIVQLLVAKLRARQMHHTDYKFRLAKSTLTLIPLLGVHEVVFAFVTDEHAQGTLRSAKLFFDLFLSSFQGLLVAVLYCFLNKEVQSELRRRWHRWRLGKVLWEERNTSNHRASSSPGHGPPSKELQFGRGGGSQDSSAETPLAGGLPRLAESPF

Sequence of human GLP-1 receptor (human) (P43220 24-463): as the sequence (P43220 24-463) above
Sequence of human glucagon receptor (human) (P47871 26-477): as the sequence (P47871 26-477) above

Molecule	EC50 hGLP-1 R [pM] (cAMP formation, HTRF, HEK-293 cells) [1]	EC50 hGlucagon R [pM] (cAMP formation, HTRF, HEK-293 cells) [2]	EC50 hGLP-1 R [pM] (cAMP formation, HTRF, HEK-293 cells) [3]	EC50 hGIP R [pM] (cAMP formation, HTRF, HEK-293 cells) [4]	EC50 hGLP-1 R [pM] (cAMP formation, HTRF, HEK-293 cells) [5]	EC50 hGIP R [pM] (cAMP formation, HTRF, HEK-293 cells) [6]	EC50 hGLUC R [pM] (cAMP formation, HTRF, HEK-293 cells) [7]
exendin-4 (peptide)	0.4	> 1e+07					
YAEGTFTSDVSIYLEGQAAKEFIAWLVKGR (ends and bridges not checked) [Tyr(1)Ile(12)-GLP1]			5	3660			
Y[Aib]EGTFTSDLSKLLEKEAVRLFIEWLKAGGPSSGAPPPS-NH2 (N-terminus assumed; SMILES CC[C@H](C)[C@H](NC(=O)[C@H](Cc1ccccc1)NC(=O)[C@H](CC(C)C)NC(=O)[C@H](CCCNC(=N)N)NC(=O)[C@@H](NC(=O)[C@H](C)NC(=O)[C@H](CCC(=O)O)NC(=O)[C@H](CCCCN)NC(=O)[C@H](CCC(=O)O)NC(=O)[C@H](CC(C)C)NC(=O)[C@H](CC(C)C)NC(=O)[C@H](CCCCN)NC(=O)[C@H](CO)NC(=O)[C@H](CC(C)C)NC(=O)[C@H](CC(=O)O)NC(=O)[C@H](CO)NC(=O)[C@@H](NC(=O)[C@H](Cc1ccccc1)NC(=O)[C@@H](NC(=O)CNC(=O)[C@H](CCC(=O)O)NC(=O)C(C)(C)NC(=O)[C@@H](N)Cc1ccc(O)cc1)[C@@H](C)O)[C@@H](C)O)C(C)C)C(=O)N[C@@H](CCC(=O)O)C(=O)N[C@@H](Cc1c[nH]c2ccccc12)C(=O)N[C@@H](CC(C)C)C(=O)N[C@@H](CCCCN)C(=O)N[C@@H](C)C(=O)NCC(=O)NCC(=O)N1CCC[C@H]1C(=O)N[C@@H](CO)C(=O)N[C@@H](CO)C(=O)NCC(=O)N[C@@H](C)C(=O)N1CCC[C@H]1C(=O)N1CCC[C@H]1C(=O)N1CCC[C@H]1C(=O)N[C@@H](CO)C(N)=O) [SEQ ID NO: 8]					1.2	2.3	79000
Y[Aib]EGTFTSDLSKLLDKEAVRLFIEWLKAGGPSSGAPPPS-NH2 (N-terminus assumed; SMILES CC[C@H](C)[C@H](NC(=O)[C@H](Cc1ccccc1)NC(=O)[C@H](CC(C)C)NC(=O)[C@H](CCCNC(=N)N)NC(=O)[C@@H](NC(=O)[C@H](C)NC(=O)[C@H](CCC(=O)O)NC(=O)[C@H](CCCCN)NC(=O)[C@H](CC(=O)O)NC(=O)[C@H](CC(C)C)NC(=O)[C@H](CC(C)C)NC(=O)[C@H](CCCCN)NC(=O)[C@H](CO)NC(=O)[C@H](CC(C)C)NC(=O)[C@H](CC(=O)O)NC(=O)[C@H](CO)NC(=O)[C@@H](NC(=O)[C@H](Cc1ccccc1)NC(=O)[C@@H](NC(=O)CNC(=O)[C@H](CCC(=O)O)NC(=O)C(C)(C)NC(=O)[C@@H](N)Cc1ccc(O)cc1)[C@@H](C)O)[C@@H](C)O)C(C)C)C(=O)N[C@@H](CCC(=O)O)C(=O)N[C@@H](Cc1c[nH]c2ccccc12)C(=O)N[C@@H](CC(C)C)C(=O)N[C@@H](CCCCN)C(=O)N[C@@H](C)C(=O)NCC(=O)NCC(=O)N1CCC[C@H]1C(=O)N[C@@H](CO)C(=O)N[C@@H](CO)C(=O)NCC(=O)N[C@@H](C)C(=O)N1CCC[C@H]1C(=O)N1CCC[C@H]1C(=O)N1CCC[C@H]1C(=O)N[C@@H](CO)C(N)=O) [SEQ ID NO: 9]					2.2	13	149000
Y[Aib]EGTFTSDLSKLLEEEAVRLFIEWLKAGGPSSGAPPPS-NH2 (N-terminus assumed; SMILES CC[C@H](C)[C@H](NC(=O)[C@H](Cc1ccccc1)NC(=O)[C@H](CC(C)C)NC(=O)[C@H](CCCNC(=N)N)NC(=O)[C@@H](NC(=O)[C@H](C)NC(=O)[C@H](CCC(=O)O)NC(=O)[C@H](CCC(=O)O)NC(=O)[C@H](CCC(=O)O)NC(=O)[C@H](CC(C)C)NC(=O)[C@H](CC(C)C)NC(=O)[C@H](CCCCN)NC(=O)[C@H](CO)NC(=O)[C@H](CC(C)C)NC(=O)[C@H](CC(=O)O)NC(=O)[C@H](CO)NC(=O)[C@@H](NC(=O)[C@H](Cc1ccccc1)NC(=O)[C@@H](NC(=O)CNC(=O)[C@H](CCC(=O)O)NC(=O)C(C)(C)NC(=O)[C@@H](N)Cc1ccc(O)cc1)[C@@H](C)O)[C@@H](C)O)C(C)C)C(=O)N[C@@H](CCC(=O)O)C(=O)N[C@@H](Cc1c[nH]c2ccccc12)C(=O)N[C@@H](CC(C)C)C(=O)N[C@@H](CCCCN)C(=O)N[C@@H](C)C(=O)NCC(=O)NCC(=O)N1CCC[C@H]1C(=O)N[C@@H](CO)C(=O)N[C@@H](CO)C(=O)NCC(=O)N[C@@H](C)C(=O)N1CCC[C@H]1C(=O)N1CCC[C@H]1C(=O)N1CCC[C@H]1C(=O)N[C@@H](CO)C(N)=O) [SEQ ID NO: 10]					1	1.3	137000
Y[Aib]EGTFTSDLSILLEEEAVRLFIEWLKAGGPSSGAPPPS-NH2 (N-terminus assumed; SMILES CC[C@H](C)[C@H](NC(=O)[C@H](CO)NC(=O)[C@H](CC(C)C)NC(=O)[C@H](CC(=O)O)NC(=O)[C@H](CO)NC(=O)[C@@H](NC(=O)[C@H](Cc1ccccc1)NC(=O)[C@@H](NC(=O)CNC(=O)[C@H](CCC(=O)O)NC(=O)C(C)(C)NC(=O)[C@@H](N)Cc1ccc(O)cc1)[C@@H](C)O)[C@@H](C)O)C(=O)N[C@@H](CC(C)C)C(=O)N[C@@H](CC(C)C)C(=O)N[C@@H](CCC(=O)O)C(=O)N[C@@H](CCC(=O)O)C(=O)N[C@@H](CCC(=O)O)C(=O)N[C@@H](C)C(=O)N[C@H](C(=O)N[C@@H](CCCNC(=N)N)C(=O)N[C@@H](CC(C)C)C(=O)N[C@@H](Cc1ccccc1)C(=O)N[C@H](C(=O)N[C@@H](CCC(=O)O)C(=O)N[C@@H](Cc1c[nH]c2ccccc12)C(=O)N[C@@H](CC(C)C)C(=O)N[C@@H](CCCCN)C(=O)N[C@@H](C)C(=O)NCC(=O)NCC(=O)N1CCC[C@H]1C(=O)N[C@@H](CO)C(=O)N[C@@H](CO)C(=O)NCC(=O)N[C@@H](C)C(=O)N1CCC[C@H]1C(=O)N1CCC[C@H]1C(=O)N1CCC[C@H]1C(=O)N[C@@H](CO)C(N)=O)[C@@H](C)CC)C(C)C) [SEQ ID NO: 11]					1.4	0.9	529000
